Laboratory results as given in article PMC7972811 (Cell Reports, 2021).
Like-named read-outs stand apart in the source and are kept apart here.

Tests used:
[1] = target: T1, SARS-CoV-2 spike S2P (ectodomain of the SARS-CoV-2 S trimer) (SARS-CoV-2, ancestral (P0DTC2 sequence), stabilised); test: cryo-EM structure
[2] = target: T1, SARS-CoV-2 spike S2P (ectodomain of the …); test: cell-based or functional assay
[3] = target: T1, SARS-CoV-2 spike S2P (ectodomain of the …); test: SPR
[4] = target: T1, SARS-CoV-2 spike S2P (ectodomain of the …); test: cryo-EM structure; remark: listed apart in the source
[5] = target: T1, SARS-CoV-2 spike S2P (ectodomain of the …); test: cryo-EM structure; remark: listed apart in the source

B1: H4 Fab (Fab, V domains shown)
VH: not shown
VL: DIQMTQSPLSLPVTPGEPASISCRSSQSLLDSDDGNTYLDWYLQKPGQSPQLLIYTLSYRASGVPDRFSGSGSGTDFTLKISRVEAEDVGVYYCMQRIEFPLTFGGGTKVEIK
stoichiometry N [1]: 1 Fab per spike trimer

B2: 2-4 IgG with the somatic hypermutation A60T (heavy chain) reverted to germline (antibody, V domains shown)
VH: not shown
VL: QSALTQPPSASGSPGQSVTISCTGTSSDVGGYNYVSWYQQHPGKAPKLMIYEVSKRPSGVPDRFSGSKSGNTASLTVSGLQAEDEADYYCSSYAGSNNLVFGGGTKLTVL
pseudovirus neutralization, fold reduction against 2-4 IgG [2]: ~9 fold
fold reduction of binding affinity against 2-4 IgG [3]: ~6 fold

B3: 2-43 IgG with the paratope somatic hypermutation S76T (heavy chain) reverted to germline (antibody, V domains shown)
VH: not shown
VL: QSALTQPASVSGSPGQSITISCTGTSSDVGGYNYVSWYQQHPGKAPKLMIYDVSKRPSGVSNRFSGSKSGNTASLTISGLQAEDEGDYYCSSYTSSSTWVFGGGTKLTVL
pseudovirus neutralization potency, fold reduction against 2-43 IgG [2]: ~5 fold
fold reduction of IgG-apparent binding affinity against 2-43 IgG [3]: ~6 fold

B4: 2-15 IgG with the paratope somatic hypermutation N53I (heavy chain) reverted to germline (antibody, V domains shown)
VH: QVQLVQSGAEVKKPGASVRVSCKASGYTFTGYYMHWVRQAPGQGLEWMGWINPNSDGTNYAQKFQGWVTMTRDTSISTVYMELSRLRSDDTAVYYCARGGSRCSGGNCYGWAYDAFDIWGQGTMITVSS
VL: QSALTQPASVSGSPGQSITISCTGTSSDVGGYNFVSWYQQHPGKAPKLMIYDVSKRPSGVSNRFSGSKSGNTASLTISGLQAEDEADCYCSSYTSSSTFVFGTGTKVTVL
pseudovirus neutralization potency, fold reduction against 2-15 IgG [2]: 217 fold
fold reduction of binding affinity against 2-15 IgG [3]: 56 fold

B5: 2-43 Fab (Fab, V domains shown)
VH: not shown
VL: QSALTQPASVSGSPGQSITISCTGTSSDVGGYNYVSWYQQHPGKAPKLMIYDVSKRPSGVSNRFSGSKSGNTASLTISGLQAEDEGDYYCSSYTSSSTWVFGGGTKLTVL
neutralization potency of the Fab, fold less than its IgG form [2]: ~140 fold
stoichiometry N [4]: 3 Fab per spike trimer

B6: 2-15 Fab (Fab, V domains shown)
VH: QVQLVQSGAEVKKPGASVRVSCKASGYTFTGYYMHWVRQAPGQGLEWMGWINPISDGTNYAQKFQGWVTMTRDTSISTVYMELSRLRSDDTAVYYCARGGSRCSGGNCYGWAYDAFDIWGQGTMITVSS
VL: QSALTQPASVSGSPGQSITISCTGTSSDVGGYNFVSWYQQHPGKAPKLMIYDVSKRPSGVSNRFSGSKSGNTASLTISGLQAEDEADCYCSSYTSSSTFVFGTGTKVTVL
neutralization potency of the Fab, fold less than its IgG form [2]: ~95 fold
stoichiometry N [5]: 1 Fab per spike trimer
